From the nanobody polyreactivity screen of Harvey et al. (2022)

Assay: yeast display, Sf9 membrane polyspecificity reagent, FACS + sequencing; frameworks hold sequencing errors
How it was run: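 A synthetic nanobody library was expressed on Saccharomyces cerevisiae BJ5465 by galactose induction for 36–48 hours. The library was stained for 1 hour at 4 °C with 10% biotinylated, detergent-solubilized Sf9 membrane reagent and enriched with streptavidin microbeads before FACS. Low and high (top ~1%) gates were set on anti-HA fluorescence for expression and streptavidin fluorescence for reagent binding, and each polyreactivity label reflects the gate of origin.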

QVQLVESGGGLVQAGGSLRLSCAASGSISVGYTMGWYRQAPGKEREFVAVITGTGGRTRYSDSVKGRFTISRDNAKNTVYLQMNSLKPEDTAGYYCAAKIRWRGALYDYWGQGTQVTVSS
polyreactivity (PSR sort gate): high polyreactivity

QVQREESGGGLVQAGGSLRLSCVASGSTFRYYAMGWYRQSPGTERELVAAITWRGTSTYYADSVKGRFTISRDNAKNTVYLQMNSLKPEDTAVYYCNAAGYWPATGDYWGQGTQVTVSW
polyreactivity (PSR sort gate): high polyreactivity

QVQLVESGGGLVQAGGTLSLSCAATGRNLSYAMGWYRQAPGKERELVAAMNWSGGTTYYADSVKGRFTISRDNAKNTVYLQMNSLKQEDTAVYYCAARVRGTGYNSWGQGTQLTVSS
polyreactivity (PSR sort gate): high polyreactivity

QVQLVESGGGLVQAGGSLRLSCAASGYIFHSYVMGWYRQAPGKERELVAAITSDDDSTFYADSVKGRFTISRDNAKNTVYLQMNSLKPEETGVYYCAADGYYQYDKDTYYSTSDYWGQGTQVTVSS
polyreactivity (PSR sort gate): low polyreactivity

QVQLVESGGGLVQAGGSLRLSCGASGRIFGYNAMGWYRQARGKERELVAAITTSGGSTYYADSVKGRFTLSRDNEKNTVYFQMNSLKQEDTAVYYCARDSLQVFYPYASDDYWGLGTQVTVSS
polyreactivity (PSR sort gate): low polyreactivity

QVQLVESGGGLVQAGGSHRLSCAASGSIFRSYAMGWYRQAPGKERELVASISRRGGSTYYADSVKGRFTISRDNAKNTVYLQMNSLIPEDTAVYYCAAVRYNSRVSTTPSEMYYWGQGTQVTVSS
polyreactivity (PSR sort gate): low polyreactivity

QVQLVESGGGLVQAGGSLRLSCAASGRTFAPNAMGWYRQAPGKEREMVAAISWSGTSTYYADSVKGRFTISRDNAKNTVYLQMNSLKPEDTAVYYCAADLEGSVGSPLTYDYWGQGTQVTVSS
polyreactivity (PSR sort gate): low polyreactivity

QVQHEESGGGLVQAGGSLRLSCAASGFTFRGYAMGWYRQAPGKERELVAAISRSGGGTYYADSVKGRFTISRDNAKNTVYLQMNSLKPEDTAVYYCAAVYRRTRSWKFDYWGQGTQVTVSS
polyreactivity (PSR sort gate): high polyreactivity

QVQLVESGGGLVQAGGSIRLSCAASGRIFHLYAMGWYRQAPGKERELVAAISRGGDTYYADSVKGRFTISRDNAKNTVYLQMYSLKPEDTAVYYCAAGRWVYTVGYYPVGYYYWGQGTQVTVSS
polyreactivity (PSR sort gate): high polyreactivity

QVQLVESGGGLVQAGGSLRLSCAASGSIFVHYAMGWYRQAPGKERELVAAITSSGGRTYYADSVKGRFTISRDNAKNTVYLQMNSLKPEDTAVYYCNAAKYLYRHGFLSAGDMYYWGQGTQVTVSS
polyreactivity (PSR sort gate): high polyreactivity

QVQLVESGGGLVQEGGSLRLSCAASGIIFGYNAMGWYRQAPGKERELVAAISRRGGTTYYADSVKGRLTISRDNSKNTVYLQMNSLKPEDTAVYYCAAQWSPTEHEYNYSGQGTQVTVSS
polyreactivity (PSR sort gate): low polyreactivity

QVQLVESGGGLVQAGGSLRLSCAASGSTFYLYAMGWYRQAPGKERELVAAISWSDDTTYYADSVKGRFTISRDNAKNTVYLQMNSLKPEDTAVYYCATVPHYYYDYDYWGQGTQVTVSS
polyreactivity (PSR sort gate): low polyreactivity

QVQLVESGGGLVQAGGSLRLSCAASGIIFRPYAMGWYRQAPGKERELVAAITWSVTSTYYADSVKGRFTISRDNAKNTVYLQMNSLKPEDTAVYYCAATCSYGVSWYEYWGQGTQVTVSS
polyreactivity (PSR sort gate): high polyreactivity

QVQLVESGVGLVQAGGILRLSCAASGFIFCQYSMGWYRQAPWKERELVAAISSVGTTNYADSVKGSFTISRDNAKNTVYLQMNSLKPEDTAVYYCNADSLVEYWDYDYWGQGTQVTVSS
polyreactivity (PSR sort gate): low polyreactivity

QVQLVESGGGLVQAGGSLRLSCAASGSTISRNAMGWSRQAPGKERELVAAISWRGGRTYYADSVKGRFTISRDNAKNTVYLQMNSLKPEDTAVYYCAAEHKYRYDYWGQGTQVTVSS
polyreactivity (PSR sort gate): low polyreactivity

QVQLVESGGGLVQAGGSLRFSCAASGRIFYANAMGWYRQAPGKERELVAAISSGGSTYYADSVKGRFTISRDNAKNTVFLQMNSLKPEDTAVYYCAVYTHKKVRPEYVYWGQGTQVTVSS
polyreactivity (PSR sort gate): low polyreactivity

QDQLVESGGGLVQTGGSLRLSCASSGLIFTYYALGWYRQAPGTERELVAANRGSYSSTYYADSVKGRFTISRDNAKNTVYLHMNSLKPEDTAVYYCAAKYYWGQGTQVTVSS
polyreactivity (PSR sort gate): high polyreactivity

QVQLVESGGGLVQAGGSLRLSCAASGSTYYYNAMGWYRQAPGKERELVARISRSGGSTYADSVKGRFSISRDNAKNTVYLQMNSLKPEDTAVYYCNAYAYGTPEFTSYAVRYDYWGQGTQVTVSS
polyreactivity (PSR sort gate): low polyreactivity

QVQLVESGGGLVQAGGSLRLSCAATGFTSYLYTMGGYRQAAGKERELVAAISNSGGNTYYADSVKGRFTISRDNANNTVYLQMNSLKPEDTAVYYCAARLFAAKYRYGYWGQGTQVTVSS
polyreactivity (PSR sort gate): high polyreactivity

QVQLVESGGGLVQAGGSLRLSCAASGSIFPLYDMGWYRLAPGKERELVAGITGSGGSTYYADSVKGRFTISRDNAKNTVYLQMNSLKPEDTAVYYCAADYSLYGWWFRNDYWGQGTQVTVSS
polyreactivity (PSR sort gate): low polyreactivity

QVQLVESGGGLVQAGGSLRLSCADSGSTFRYNAMGWYREAPGKERELVADIRRSGGSTYYADSVKGRFTISRDKAKNTVYLQMNSLKPEDTAVYYCNAAVSRLYYHSYSYRSYYYWGQGTQVTVSS
polyreactivity (PSR sort gate): high polyreactivity

QVQLVESGGGLVQAGGSLRLSCAASGIIFQFYAMGWYRQAPGKERELVAAISRSGGITHYADSVKGRFTISRDTAQNTVYLQMNSLKPEDTAVYYCAAVRQAYPRLDYWGQGTQVTVSS
polyreactivity (PSR sort gate): high polyreactivity

QVQLVESGGGLVQAGGRLRLSCAASGSTFLQNAMGWYRQAPGKEREFVAAISRSGGSTYYADSVKGRFTISRDNAKNTVYLQMNSLKPEDTAVYYCARRYWPGSAYWIYDYWGQGTQVTVSS
polyreactivity (PSR sort gate): high polyreactivity

QVQLVESGGGLVQAGGSLRLSCAASGTIFGYYAMGWDREAPGKERELVAAITVSGSRTYYADSVKGRFTISRDKAKNTVYLQMNCLKPEATAVYYCAARYVSRYWAGRYPTRQRDSWGQGTQVTVSS
polyreactivity (PSR sort gate): high polyreactivity

QVQLVESGGGLVQAGGSLRLSCAASGSTFRHYAMGWYRQAPGKERELVAVISWGGTSTYYADSVKGRFTISRDNAKNTVYLQMKSLKPEDTAVYYCNKAYFPIFKGYEMYYWGQGTQVTVSS
polyreactivity (PSR sort gate): low polyreactivity

QVQLVESGGGLVQAGGSLRLSCAASGFIFYANAMGWYRQAPGKERELVAAITWSGSRTYYADSVKGRFTISRDNAKNTVYLQMNSLKPEDTAVYYCNKDWYVGSFGYPEDYWGQGTQVTVSS
polyreactivity (PSR sort gate): low polyreactivity

QVQLVESVGGLVQAGGSLRLSCAASGSIEAYAMGWYRQAPGKERELVASITWRGGSTYYADSVKGRFTISRDNAKNTVYLQMNSLKPEDTAVYYCAAGFQTRTPLNQFDYWGQGTQVTVSS
polyreactivity (PSR sort gate): low polyreactivity

QVQHVESGGGLVQAGGSLRLSCAASGRTFVNNAMGWYRQQPGKERELVAAITGSGGSTYYADSVKGRFTISRDNAKNTVYLLMNSLKPEDTAVYYCAKRLVGSRYLFDYWGQGTQVTVSS
polyreactivity (PSR sort gate): low polyreactivity

QVQLVESGGGLVQAGGSLRLSCAASGSIFNWNAMGWYRQAPGKERDLVATITITTSTNYADSVKGRFTISRDNAKNSVYLQMNCLKPEDNGVYYCNAGDPYRYLDDYNYWGQGTKVTVSS
polyreactivity (PSR sort gate): low polyreactivity

QVQLVESGGGLVQAGGSLRLSCAASGNTFWRYTMGWYRQAPGKERELVAAISSSGGSTYYADSVKGRFTISRDNAKNTVYLQMNSLKPEDTAVYYCAADSGSSRSRRGYEYWGQGTQVTVSS
polyreactivity (PSR sort gate): high polyreactivity

QVQLVESGGGLVQAGGSLRLSCAASGGIISMYDIGWYRQAQGKERQLVAAISQSGGSTYYADYVKGRFTISRDNAKNTVYLQMNSLNPEVTGVYYCAADLYLTLIGFIFTGEEYWGQGTQGTVSS
polyreactivity (PSR sort gate): low polyreactivity

QVQLVESGGGLVQAGGSLRLSCAASGLIFAEYAMGWYRQAPGKERELVARITSGGSTDYADSVKGRFTISRDNAKNTVYLQMNSLKPEDTAVYYCAARYYSQDKNASTASDFDYWGQGTQVTVSS
polyreactivity (PSR sort gate): low polyreactivity

QVQLVESGGGLVQAGGSLRLSCAASGSTFGDNAMGWYRQAPGKERELVAAISSSGDSTYYADSVKGRFTISRDNAKNTVYLQMNSLKPEDTAVYYCAADRGSTAGSVTYTPGNYWGQGTQVTVSS
polyreactivity (PSR sort gate): low polyreactivity

QVQLVESGGGLVQAGGSLRLSCAAYGRTFGYNTMGWYRQAPGKERELVATIRTNGVSTYYADSVKGRFTISRDNAKNTVYLQMNSLKPEDTAVYYCNADPHDQYDYWGQGTQVTVSS
polyreactivity (PSR sort gate): low polyreactivity

QVQLVESGGVLVQDGGSLRLSCAASGRIFGHYAMGWYRQAPGKERELVAAISWSGGSTYYADSVKARFTISRDNAKNTVYLQMKSLKPEDTAVYDCNTGRVRYQGVRYDYWGQGTQVTVSS
polyreactivity (PSR sort gate): high polyreactivity

QVQLGESGGGLVQAGGSLRLTCAASGSIFSIYAMGWYIQAPGKERELVAAIDSGTSTTYADSVKGRFTISRDNAKYTVYLQMYSLKPEDTAVYYCAAALYSDVASVATYGYYWGQGTQVTVSS
polyreactivity (PSR sort gate): low polyreactivity

QVQLVESGGGLVQAGGSLRLSCAASGRLFYQYAMGWSRQAPGKERELVAAISRSGGSTSYADSVKGRFTISRDNAKNTVYLQMNSLKPEDTAVYYCNARRWWDFQGYDYWGQGTQVTVSS
polyreactivity (PSR sort gate): high polyreactivity

QDQLVESGGGLVQAGGSLRLSCAASGSTFRHYAMGWYRQAPGQESELVAAISSRGGRTYYADSVKGRFTISRDNAKNTVYFQMNSLKPEDTAVYYCAADRFRLYVGGWWYDYWGLGTQVTVSS
polyreactivity (PSR sort gate): high polyreactivity

QVQLVESGGGLVQAGGSLRLSCAASGFIFSSYAMGWYRQAPGKERELVAAISRSGGRTNYADSVKGRFTISRDNAKNTVYLQMNSLKPEDTAVYYCAAGRWWVYRYARYYYWGQGTQVTVSS
polyreactivity (PSR sort gate): high polyreactivity

QVQLVESGGGLVQAGGTLRLSCAASGRIFPRNVLGWYRQAPGKEWELVAAISSRGTRTYYADSVKGRFTISRDNAKNTVYLQMNSLKPEDTPVYYCAADGPYEGYDDWGQGTQVTVSS
polyreactivity (PSR sort gate): high polyreactivity

QVQHVESGGGLVQAGGSLRLSCAASGSTFWYNAMGWYRQAPGKERELVAAISYSGGRTYYADSVKGRFTISRDNAKNTVYLQMNSLKPEDTAVYYCNADSRYGGDYWGQGTQVTVSS
polyreactivity (PSR sort gate): low polyreactivity

QVQLVESGGGLVQAGGSLRLSCAASGSIFSAYAMGWYRQAPGKEREIVASITWSGGSTYYADSVKGRFTISRDNAKNTVYLQMNSLKPEDTAVYYCAAVYVTWYNNYEYWGQGTQVTVSS
polyreactivity (PSR sort gate): high polyreactivity

QVQQQESGGGLVQAGGSLRLSCAASGTIFQLTFMGRYRQAPGKERELVASIDYGGNTNYADSVKGRFTISRDNAKNNVYLQMNSLKPEDTAVYYCAASSDSWTTHPYWGQGTHVTVSS
polyreactivity (PSR sort gate): low polyreactivity
